The target of the assay is T1, His-PTPN23 (UniProt Q9H3S7 1-1636).
T1 construct: PTPN23 cDNA amplified and subcloned to pVL1392 with a His-tag; also called baculovirally purified PTPN23; source: baculovirus, purified (Ni-Sepharose beads, eluted with imidazole)
As to the kind of experiment: pull-down; GST-WDR4 bound on glutathione beads incubated with purified PTPN23 or PTPN23 segments; binding buffer 50 mM Tris-HCl pH 7.5, 150 mM NaCl, 1% NP-40; bound proteins by Western blot. The note with it: both partners purified. For orientation: In western blotting, separated proteins are transferred to a membrane and probed.

Consider one molecule from paper PMC10567730, “PTPN23 ubiquitination by WDR4 suppresses EGFR and c-MET degradation to define a lung cancer therapeutic target” (Cell Death & Disease, 2023).

T1 sequence (Q9H3S7 whole entry): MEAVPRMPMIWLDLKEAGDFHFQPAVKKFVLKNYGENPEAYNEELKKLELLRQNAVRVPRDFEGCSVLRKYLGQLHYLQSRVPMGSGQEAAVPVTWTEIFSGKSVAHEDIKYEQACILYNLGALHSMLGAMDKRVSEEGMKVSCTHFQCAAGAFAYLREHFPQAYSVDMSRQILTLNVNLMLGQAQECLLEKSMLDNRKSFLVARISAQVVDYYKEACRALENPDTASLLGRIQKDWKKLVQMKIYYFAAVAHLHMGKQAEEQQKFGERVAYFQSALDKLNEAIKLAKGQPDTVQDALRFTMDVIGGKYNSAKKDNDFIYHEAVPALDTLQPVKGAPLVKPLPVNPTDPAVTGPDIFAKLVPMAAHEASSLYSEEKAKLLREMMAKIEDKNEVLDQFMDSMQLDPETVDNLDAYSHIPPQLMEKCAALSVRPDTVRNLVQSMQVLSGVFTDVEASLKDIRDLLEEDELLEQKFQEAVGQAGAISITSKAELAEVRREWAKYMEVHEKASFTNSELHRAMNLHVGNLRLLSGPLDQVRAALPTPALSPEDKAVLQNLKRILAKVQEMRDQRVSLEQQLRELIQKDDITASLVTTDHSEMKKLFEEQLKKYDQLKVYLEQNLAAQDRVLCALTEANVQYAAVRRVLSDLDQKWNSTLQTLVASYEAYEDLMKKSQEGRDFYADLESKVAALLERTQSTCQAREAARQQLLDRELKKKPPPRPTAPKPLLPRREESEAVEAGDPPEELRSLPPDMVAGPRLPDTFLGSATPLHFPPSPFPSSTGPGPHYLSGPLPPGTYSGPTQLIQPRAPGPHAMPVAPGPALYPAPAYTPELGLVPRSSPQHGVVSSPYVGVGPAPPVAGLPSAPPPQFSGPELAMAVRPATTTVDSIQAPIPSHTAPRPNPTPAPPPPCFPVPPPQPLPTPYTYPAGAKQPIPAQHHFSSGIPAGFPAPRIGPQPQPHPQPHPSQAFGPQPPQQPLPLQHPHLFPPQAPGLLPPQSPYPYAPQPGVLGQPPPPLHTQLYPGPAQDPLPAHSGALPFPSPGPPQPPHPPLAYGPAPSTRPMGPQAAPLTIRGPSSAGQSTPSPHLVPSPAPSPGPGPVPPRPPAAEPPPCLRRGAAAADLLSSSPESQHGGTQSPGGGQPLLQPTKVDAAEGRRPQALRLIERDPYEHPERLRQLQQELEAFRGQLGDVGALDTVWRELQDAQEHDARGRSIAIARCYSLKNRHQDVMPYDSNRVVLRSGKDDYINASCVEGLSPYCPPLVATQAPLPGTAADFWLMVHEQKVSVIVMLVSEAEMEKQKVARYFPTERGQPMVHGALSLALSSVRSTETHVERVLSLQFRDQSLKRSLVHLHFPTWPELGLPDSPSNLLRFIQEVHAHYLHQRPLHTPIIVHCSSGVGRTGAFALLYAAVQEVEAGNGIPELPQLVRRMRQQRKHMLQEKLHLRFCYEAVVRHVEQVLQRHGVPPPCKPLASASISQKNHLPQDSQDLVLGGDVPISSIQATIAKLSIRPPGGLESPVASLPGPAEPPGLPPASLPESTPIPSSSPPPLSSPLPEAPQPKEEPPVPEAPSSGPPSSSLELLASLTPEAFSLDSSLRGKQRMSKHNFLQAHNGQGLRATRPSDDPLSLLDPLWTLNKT

B1: GST-WDR4 (natural protein, UniProt P57081 1-412, looked up)
chain: MAGSVGLALCGQTLVVRGGSRFLATSIASSDDDSLFIYDCSAAEKKSQENKGEDAPLDQGSGAILASTFSKSGSYFALTDDSKRLILFRTKPWQCLSVRTVARRCTALTFIASEEKVLVADKSGDVYSFSVLEPHGCGRLELGHLSMLLDVAVSPDDRFILTADRDEKIRVSWAAAPHSIESFCLGHTEFVSRISVVPTQPGLLLSSSGDGTLRLWEYRSGRQLHCCHLASLQELVDPQAPQKFAASRIAFWCQENCVALLCDGTPVVYIFQLDARRQQLVYRQQLAFQHQVWDVAFEETQGLWVLQDCQEAPLVLYRPVGDQWQSVPESTVLKKVSGVLRGNWAMLEGSAGADASFSSLYKATFDNVTSYLKKKEERLQQQLEKKQRRRSPPPGPDGHAKKMRPGEATLSC
notes: WDR4 cDNA amplified by PCR and cloned to pGEX-4T-1; pGEX-4T-1 would place GST at the N-terminus (surmised from the vector); also called bacterially purified GST-WDR4
For the molecule B1, the binding result is “binds”.
